Experimental data published in the supplement of paper PMC5998384.

Columns and labels:
HeLa Kyoto [1] = assay: solubility in G1/S (NP-40 vs SDS abundance) (log2 ratio); higher = more soluble; conditions: cell cycle stage: G1/S
HeLa Kyoto [2] = assay: melting temperature (median over replicates), in situ; higher = more thermally stable
HeLa Kyoto [3] = assay: solubility change mitosis vs G1/S (difference of NP-40 vs SDS log2 ratios) (log2 ratio difference); higher = more soluble in mitosis
HeLa Kyoto [4] = assay: thermal stability score vs G1/S (z-score of summed log2 fold changes over temperatures); higher = more thermally stable than in G1/S
[5] = cell cycle stage: early G1 (4.5 h after nocodazole release)
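Throughout, for melting temperature (median over replicates), in situ: HeLa Kyoto cells synchronized by double thymidine or nocodazole block, proteins quantified by TMT10plex mass spectrometry, three independent biological replicates.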
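Throughout, for solubility change mitosis vs G1/S (difference of NP-40 vs SDS log2 ratios): synchronized HeLa Kyoto cells (double thymidine block for G1/S, nocodazole release for mitosis), protein amounts in NP-40 versus SDS lysates quantified by mass spectrometry, three biological replicates.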
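Throughout, for solubility in G1/S (NP-40 vs SDS abundance): HeLa Kyoto cells arrested at G1/S by double thymidine block, proteins quantified by TMT10plex mass spectrometry in mild NP-40 versus SDS extracts, three biological replicates.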
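Throughout, for thermal stability score vs G1/S (z-score of summed log2 fold changes over temperatures): synchronized HeLa Kyoto cells, proteins quantified by TMT10plex mass spectrometry, three biological replicates, mitosis taken 0.5 h after nocodazole release, G1/S directly after double thymidine block.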

| Sequence | solubility in G1/S (log2) (HeLa Kyoto [1]) | melting temperature (HeLa Kyoto [2]; cell cycle stage: G1/S) [°C] | melting temperature (HeLa Kyoto [2]; cell cycle stage: mitosis) [°C] | solubility change mitosis (log2) (HeLa Kyoto [3]) | thermal stability score (HeLa Kyoto [4]; [5]) | thermal stability score (HeLa Kyoto [4]; cell cycle stage: mitosis) |
| --- | --- | --- | --- | --- | --- | --- |
| MKKDVRILLVGEPRVGKTSLIMSLVSEEFPEEVPPRAEEITIPADVTPERVPTHIVDYSEAEQSDEQLHQEISQANVICIVYAVNNKHSIDKVTSRWIPLINERTDKDSRLPLILVGNKSDLVEYSSMETILPIMNQYTEIETCVECSAKNLKNISELFYYAQKAVLHPTGPLYCPEEKEMKPACIKALTRIFKISDQDNDGTLNDAELNFFQRICFNTPLAPQALEDVKNVVRKHISDGVADSGLTLKGFLFLHTLFIQRGRHETTWTVLRRFGYDDDLDLTPEYLFPLLKIPPDCTTELNHHAYLFLQSTFDKHDLDRDCALSPDELKDLFKVFPYIPWGPDVNNTVCTNERGWITYQGFLSQWTLTTYLDVQRCLEYLGYLGYSILTEQESQASAVTVTRDKKIDLQKKQTQRNVFRCNVIGVKNCGKSGVLQALLGRNLMRQKKIREDHKSYYAINTVYVYGQEKYLLLHDISESEFLTEAEIICDVVCLVYDVSNPKSFEYCARIFKQHFMDSRIPCLIVAAKSDLHEVKQEYSISPTDFCRKHKMPPPQAFTCNTADAPSKDIFVKLTTMAMYPHVTQADLKSSTFWLRASFGATVFAVLGFAMYKALLKQR [RHOT1] | -0.379 | 52.8 | 52.5 | -0.0628 | -0.722 | -1.26 |
| MKKFFQEFKADIKFKSAGPGQKLKESVGEKAHKEKPNQPAPRPPRQGPTNEAQMAAAAALARLEQKQSRAWGPTSQDTIRNQVRKELQAEATVSGSPEAPGTNVVSEPREEGSAHLAVPGVYFTCPLTGATLRKDQRDACIKEAILLHFSTDPVAASIMKIYTFNKDQDRVKLGVDTIAKYLDNIHLHPEEEKYRKIKLQNKVFQERINCLEGTHEFFEAIGFQKVLLPAQDQEDPEEFYVLSETTLAQPQSLERHKEQLLAAEPVRAKLDRQRRVFQPSPLASQFELPGDFFNLTAEEIKREQRLRSEAVERLSVLRTKAMREKEEQRGLRKYNYTLLRVRLPDGCLLQGTFYARERLGAVYGFVREALQSDWLPFELLASGGQKLSEDENLALNECGLVPSALLTFSWDMAVLEDIKAAGAEPDSILKPELLSAIEKLL [UBXN6] | 0.337 | – | 47.8 | -0.0563 | 0.361 | 0.361 |
| MKKFSRMPKSEGGSGGGAAGGGAGGAGAGAGCGSGGSSVGVRVFAVGRHQVTLEESLAEGGFSTVFLVRTHGGIRCALKRMYVNNMPDLNVCKREITIMKELSGHKNIVGYLDCAVNSISDNVWEVLILMEYCRAGQVVNQMNKKLQTGFTEPEVLQIFCDTCEAVARLHQCKTPIIHRDLKVENILLNDGGNYVLCDFGSATNKFLNPQKDGVNVVEEEIKKYTTLSYRAPEMINLYGGKPITTKADIWALGCLLYKLCFFTLPFGESQVAICDGNFTIPDNSRYSRNIHCLIRFMLEPDPEHRPDIFQVSYFAFKFAKKDCPVSNINNSSIPSALPEPMTASEAAARKSQIKARITDTIGPTETSIAPRQRPKANSATTATPSVLTIQSSATPVKVLAPGEFGNHRPKGALRPGNGPEILLGQGPPQQPPQQHRVLQQLQQGDWRLQQLHLQHRHPHQQQQQQQQQQQQQQQQQQQQQQQQQQQHHHHHHHHLLQDAYMQQYQHATQQQQMLQQQFLMHSVYQPQPSASQYPTMMPQYQQAFFQQQMLAQHQPSQQQASPEYLTSPQEFSPALVSYTSSLPAQVGTIMDSSYSANRSVADKEAIANFTNQKNISNPPDMSGWNPFGEDNFSKLTEEELLDREFDLLRSNRLEERASSDKNVDSLSAPHNHPPEDPFGSVPFISHSGSPEKKAEHSSINQENGTANPIKNGKTSPASKDQRTGKKTSVQGQVQKGNDESESDFESDPPSPKSSEEEEQDDEEVLQGEQGDFNDDDTEPENLGHRPLLMDSEDEEEEEKHSSDSDYEQAKAKYSDMSSVYRDRSGSGPTQDLNTILLTSAQLSSDVAVETPKQEFDVFGAVPFFAVRAQQPQQEKNEKNLPQHRFPAAGLEQEEFDVFTKAPFSKKVNVQECHAVGPEAHTIPGYPKSVDVFGSTPFQPFLTSTSKSESNEDLFGLVPFDEITGSQQQKVKQRSLQKLSSRQRRTKQDMSKSNGKRHHGTPTSTKKTLKPTYRTPERARRHKKVGRRDSQSSNEFLTISDSKENISVALTDGKDRGNVLQPEESLLDPFGAKPFHSPDLSWHPPHQGLSDIRADHNTVLPGRPRQNSLHGSFHSADVLKMDDFGAVPFTELVVQSITPHQSQQSQPVELDPFGAAPFPSKQ [BMP2K] | -0.292 | 50.5 | 51.1 | -0.0153 | 0.793 | 0.398 |
| MKKQFNRMKQLANQTVGRAEKTEVLSEDLLQIERRLDTVRSICHHSHKRLVACFQGQHGTDAERRHKKLPLTALAQNMQEASTQLEDSLLGKMLETCGDAENQLALELSQHEVFVEKEIVDPLYGIAEVEIPNIQKQRKQLARLVLDWDSVRARWNQAHKSSGTNFQGLPSKIDTLKEEMDEAGNKVEQCKDQLAADMYNFMAKEGEYGKFFVTLLEAQADYHRKALAVLEKTLPEMRAHQDKWAEKPAFGTPLEEHLKRSGREIALPIEACVMLLLETGMKEEGLFRIGAGASKLKKLKAALDCSTSHLDEFYSDPHAVAGALKSYLRELPEPLMTFNLYEEWTQVASVQDQDKKLQDLWRTCQKLPPQNFVNFRYLIKFLAKLAQTSDVNKMTPSNIAIVLGPNLLWARNEGTLAEMAAATSVHVVAVIEPIIQHADWFFPEEVEFNVSEAFVPLTTPSSNHSFHTGNDSDSGTLERKRPASMAVMEGDLVKKESFGVKLMDFQAHRRGGTLNRKHISPAFQPPLPPTDGSTVVPAGPEPPPQSSRAESSSGGGTVPSSAGILEQGPSPGDGSPPKPKDPVSAAVPAPGRNNSQIASGQNQPQAAAGSHQLSMGQPHNAAGPSPHTLRRAVKKPAPAPPKPGNPPPGHPGGQSSSGTSQHPPSLSPKPPTRSPSPPTQHTGQPPGQPSAPSQLSAPRRYSSSLSPIQAPNHPPPQPPTQATPLMHTKPNSQGPPNPMALPSEHGLEQPSHTPPQTPTPPSTPPLGKQNPSLPAPQTLAGGNPETAQPHAGTLPRPRPVPKPRNRPSVPPPPQPPGVHSAGDSSLTNTAPTASKIVTDSNSRVSEPHRSIFPEMHSDSASKDVPGRILLDIDNDTESTAL [ARHGAP17] | 0.413 | 48.2 | 49.1 | -0.0286 | 0.76 | 2.7 |
| MKLLARALRLCEFGRQASSRRLVAGQGCVGPRRGCCAPVQVVGPRADLPPCGACITGRIMRPDDANVAGNVHGGTILKMIEEAGAIISTRHCNSQNGERCVAALARVERTDFLSPMCIGEVAHVSAEITYTSKHSVEVQVNVMSENILTGAKKLTNKATLWYVPLSLKNVDKVLEVPPVVYSRQEQEEEGRKRYEAQKLERMETKWRNGDIVQPVLNPEPNTVSYSQSSLIHLVGPSDCTLHGFVHGGVTMKLMDEVAGIVAARHCKTNIVTASVDAINFHDKIRKGCVITISGRMTFTSNKSMEIEVLVDADPVVDSSQKRYRAASAFFTYVSLSQEGRSLPVPQLVPETEDEKKRFEEGKGRYLQMKAKRQGHAEPQP [ACOT7] | 0.0352 | 58.9 | 59.2 | -0.0718 | -2.43 | -3.98 |
| MKLNVDGLLVYFPYDYIYPEQFSYMRELKRTLDAKGHGVLEMPSGTGKTVSLLALIMAYQRAYPLEVTKLIYCSRTVPEIEKVIEELRKLLNFYEKQEGEKLPFLGLALSSRKNLCIHPEVTPLRFGKDVDGKCHSLTASYVRAQYQHDTSLPHCRFYEEFDAHGREVPLPAGIYNLDDLKALGRRQGWCPYFLARYSILHANVVVYSYHYLLDPKIADLVSKELARKAVVVFDEAHNIDNVCIDSMSVNLTRRTLDRCQGNLETLQKTVLRIKETDEQRLRDEYRRLVEGLREASAARETDAHLANPVLPDEVLQEAVPGSIRTAEHFLGFLRRLLEYVKWRLRVQHVVQESPPAFLSGLAQRVCIQRKPLRFCAERLRSLLHTLEITDLADFSPLTLLANFATLVSTYAKGFTIIIEPFDDRTPTIANPILHFSCMDASLAIKPVFERFQSVIITSGTLSPLDIYPKILDFHPVTMATFTMTLARVCLCPMIIGRGNDQVAISSKFETREDIAVIRNYGNLLLEMSAVVPDGIVAFFTSYQYMESTVASWYEQGILENIQRNKLLFIETQDGAETSVALEKYQEACENGRGAILLSVARGKVSEGIDFVHHYGRAVIMFGVPYVYTQSRILKARLEYLRDQFQIRENDFLTFDAMRHAAQCVGRAIRGKTDYGLMVFADKRFARGDKRGKLPRWIQEHLTDANLNLTVDEGVQVAKYFLRQMAQPFHREDQLGLSLLSLEQLESEETLKRIEQIAQQL [ERCC2] | -0.193 | 48.9 | 49.1 | -0.0825 | 1 | 2.34 |
| MKLYSLSVLYKGEAKVVLLKAAYDVSSFSFFQRSSVQEFMTFTSQLIVERSSKGTRASVKEQDYLCHVYVRNDSLAGVVIADNEYPSRVAFTLLEKVLDEFSKQVDRIDWPVGSPATIHYPALDGHLSRYQNPREADPMTKVQAELDETKIILHNTMESLLERGEKLDDLVSKSEVLGTQSKAFYKTARKQNSCCAIM [YKT6] | -0.0827 | 54.5 | 54.6 | -0.0935 | 0.334 | -0.9 |
| MKMAAPTANKAASLGCNNKPAFPELDFRSGARVEELNKLIQEFTKHDQREYDDQRALEIHTAKDFIFSMLGMVQKLDQKLPVANEYLLLSGGVREGVVDLDLDELNVYARGTDYDMDFTLLVPALKLHDRNQPVTLDMRHSALCHSWLSLRLFDEGTISKWKDCCTIVDHINGATNYFFSPTKVADWFYDSISIVLSEIQKKPQRGMPKVEKVEKNGTIISIILGVGSSRMLYDIVPVVSFKGWPAVAQSWLMENHFWDGKITEEEVISGFYLVPACSYKGKKDNEWRLSFARSEVQLKKCISSSLMQAYQACKAIIIKLLSRPKAISPYHLRSMMLWACDRLPANYLAQEDYAAHFLLGLIDDLQHCLVNKMCPNYFIPQCNMLEHLSEETVMLHARKLSSVRSDPAEHLRTAIEHVKAANRLTLELQRRGSTTSIPSPQSDGGDPNQPDDRLAKKLQQLVTENPGKSISVFINPDDVTRPHFRIDDKFF [MB21D2] | 0.0815 | 56.3 | 56.5 | -0.0032 | 1.1 | -0.608 |
| MKMADAKQKRNEQLKRWIGSETDLEPPVVKRQKTKVKFDDGAVFLAACSSGDTDEVLKLLHRGADINYANVDGLTALHQACIDDNVDMVKFLVENGANINQPDNEGWIPLHAAASCGYLDIAEFLIGQGAHVGAVNSEGDTPLDIAEEEAMEELLQNEVNRQGVDIEAARKEEERIMLRDARQWLNSGHINDVRHAKSGGTALHVAAAKGYTEVLKLLIQAGYDVNIKDYDGWTPLHAAAHWGKEEACRILVDNLCDMEMVNKVGQTAFDVADEDILGYLEELQKKQNLLHSEKRDKKSPLIESTANMDNNQSQKTFKNKETLIIEPEKNASRIESLEQEKVDEEEEGKKDESSCSSEEDEEDDSESEAETDKTKPLASVTNANTSSTQAAPVAVTTPTVSSGQATPTSPIKKFPTTATKISPKEEERKDESPATWRLGLRKTGSYGALAEITASKEGQKEKDTAGVTRSASSPRLSSSLDNKEKEKDSKGTRLAYVAPTIPRRLASTSDIEEKENRDSSSLRTSSSYTRRKWEDDLKKNSSVNEGSTYHKSCSFGRRQDDLISSSVPSTTSTPTVTSAAGLQKSLLSSTSTTTKITTGSSSAGTQSSTSNRLWAEDSTEKEKDSVPTAVTIPVAPTVVNAAASTTTLTTTTAGTVSSTTEVRERRRSYLTPVRDEESESQRKARSRQARQSRRSTQGVTLTDLQEAEKTIGRSRSTRTREQENEEKEKEEKEKQDKEKQEEKKESETSREDEYKQKYSRTYDETYQRYRPVSTSSSTTPSSSLSTMSSSLYASSQLNRPNSLVGITSAYSRGITKENEREGEKREEEKEGEDKSQPKSIRERRRPREKRRSTGVSFWTQDSDENEQEQQSDTEEGSNKKETQTDSISRYETSSTSAGDRYDSLLGRSGSYSYLEERKPYSSRLEKDDSTDFKKLYEQILAENEKLKAQLHDTNMELTDLKLQLEKATQRQERFADRSLLEMEKRERRALERRISEMEEELKMLPDLKADNQRLKDENGALIRVISKLSK [PPP1R12A] | -0.42 | 50.4 | 50.2 | 0.0601 | -1.62 | -0.382 |
